Bounds are passed on as bounds.

22 molecules from patent US20170189507A1 can be followed below.

This assay concerns the target HLA-A*24 (human). Nature of the assay: UV-ligand exchange ELISA. On the technique in general: In an ELISA, binding on a coated surface is turned into a signal by an enzyme label.
Turning to YYGPSLFLL [peptide SEQ ID No 200], the peptide exchange yield is 50 to 75%.

In turn, LYIDRPLPYL [peptide SEQ ID No 196] came in with a peptide exchange yield of 50 to 75%.

Regarding VYQGHTALL [peptide SEQ ID No 277], the peptide exchange yield is above 75%.

The molecule YYEVHKELF [peptide SEQ ID No 175] had a peptide exchange yield above 75%.

Molecule TYELRYFQI [peptide SEQ ID No 204] had a peptide exchange yield above 75%.

For AYVVFVSTL [peptide SEQ ID No 207], the peptide exchange yield fell in the range of 20 to 49%.

With QYLGQIQHI [peptide SEQ ID No 268], the peptide exchange yield is 50 to 75%.

IYATEAHVF [peptide SEQ ID No 201] displayed a peptide exchange yield of 50 to 75%.

For PYRLIFEKF [peptide SEQ ID No 281], the peptide exchange yield lay within 20 to 49%.

TFSVSSHLF [peptide SEQ ID No 222] had a peptide exchange yield of 50 to 75%.

In the case of TYSVSFPMF [peptide SEQ ID No 195], the peptide exchange yield is above 75%.

YYKSTSSAF [peptide SEQ ID No 218] returned a peptide exchange yield of 50 to 75%.

VYWDSAGAAHF [peptide SEQ ID No 202] returned a peptide exchange yield above 75%.

Consider EYSLFPGQVVI [peptide SEQ ID No 197], for which the peptide exchange yield lay in the range of 50 to 75%.

As to EYNQWFTKL [peptide SEQ ID No 176], the peptide exchange yield was in the range of 50 to 75%.

Turning to YFIDSTNLKTHF [peptide SEQ ID No 269], the peptide exchange yield was in the range of 50 to 75%.

TYKDEGNDYF [peptide SEQ ID No 209] showed a peptide exchange yield of 50 to 75%.

LYITEPKTI [peptide SEQ ID No 287]: the peptide exchange yield was 50 to 75%.

The molecule RYAEEVGIF [peptide SEQ ID No 199] came in with a peptide exchange yield of 50 to 75%.

The molecule HYPPVQVLF [peptide SEQ ID No 285] displayed a peptide exchange yield of 50 to 75%.

The molecule NYYEVHKELF [peptide SEQ ID No 270] yielded a peptide exchange yield of 50 to 75%.

For the molecule VYVGGGQIIHL [peptide SEQ ID No 174], the peptide exchange yield was in the range of 50 to 75%.
